Source: patent publication US20110256122A1 (published 2011)

Target: T1, recombinant human TNF R1/TNFRSF1A/Fc chimera (R+D Systems) (human, UniProt P19438 30-211)
T1 construct: Bought chimera; also called TNF-αR1; TNFR1 Fc; Fc part of the bought chimera not given
T1 sequence (looked up): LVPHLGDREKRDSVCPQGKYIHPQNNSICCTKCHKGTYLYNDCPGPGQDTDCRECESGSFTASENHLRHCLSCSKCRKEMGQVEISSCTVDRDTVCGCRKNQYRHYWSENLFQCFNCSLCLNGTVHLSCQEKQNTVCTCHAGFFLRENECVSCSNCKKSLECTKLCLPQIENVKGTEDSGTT
Test: sandwich ELISA, TNF R1 Fc chimera coated on the plate, anti-human IgG F(ab)2 then anti-goat/sheep-HRP detection

B1: Dom 1h-131-206 (other)
chain: EVQLLESGGGLVQPGGSLRLSCAASGFTFAHETMVWVRQAPGKGLEWVSHIPPDGQDPFYADSVKGRFTISRDNSKNTLYLQMNSLRAEDTAVYHCALLPKRGPWFDYWGQGTLVTVSS
notes: Immunoglobulin single variable domain (dAb) with specificity for TNF-αR1; also called α-TNF-αR1 dAb; anti TNF alpha R1 dAb
binding result: binds
